Results published in PMC4141206 (FEBS Open Bio, 2014).

Biological target: ANAPC2CW fragment (mouse ANAPC2 cullin-Winged-helix subdomain; residues 512–837) (mouse, UniProt Q8BZQ7 512-837)
Assay: NMR titration

ANAPC2CW fragment (mouse ANAPC2 cullin-Winged-helix subdomain; residues 512–837), sequence (Q8BZQ7 512-837): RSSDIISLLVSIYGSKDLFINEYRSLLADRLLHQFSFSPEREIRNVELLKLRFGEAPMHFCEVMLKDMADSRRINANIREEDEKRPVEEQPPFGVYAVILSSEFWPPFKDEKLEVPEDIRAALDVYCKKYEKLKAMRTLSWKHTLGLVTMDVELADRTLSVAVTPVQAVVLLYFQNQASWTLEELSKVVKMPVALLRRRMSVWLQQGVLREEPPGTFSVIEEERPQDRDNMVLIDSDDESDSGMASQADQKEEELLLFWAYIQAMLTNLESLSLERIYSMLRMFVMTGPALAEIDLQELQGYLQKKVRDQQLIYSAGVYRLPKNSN

binding result: binds
B1: Emi2 ZBR–RL fragment (mouse Emi2; residues 547–641), 13C- and 15N-labeled (domain or fragment, UniProt Q8CDI2 546-640, looked up)
chain: LTHLRSKQEQYVKVARTLFTDEALKPCPRCQSPAKYQPHKKRGLCSRLACGFDFCVLCLCAYHGSEDCRRGSAKARGSKDVLPGSAQSKRNLKRL
modifications: [15N, 13C]-labeled
